Here are results for 22 sequences from the DeepSol protein solubility set.

This series is described as follows: soluble on expression in E. coli; label from the status in PepcDB or PDB records.
As to “MFSIDDVAKQAQSLAGKGYETPKSNLPSVFRDMKYADYQQIQFNHDKAYWNNLKTPFKLEFYHQGMYFDTPVKINEVTATAVKRIKYSPDYFTFGDVQHDKDTVKDLGFAGFKVLYPINSKDKNDEIVSMLGASYFRVIGAGQVYGLSARGLAIDTALPSGEEFPRFKEFWIERPKPTDKRLTIYALLDSPRATGAYKFVVMPGRDTVVDVQSKIYLRDKVGKLGVAPLTSMFLFGPNQPSPANNYRPELHDSNGLSIHAGNGEWIWRPLNNPKHLAVSSFSMENPQGFGLLQRGRDFSRFEDLDDRYDLRPSAWVTPKGEWGKGSVELVEIPTNDETNDNIVAYWTPDQLPEPGKEMNFKYTITFSRDEDKLHAPDNAWVQQTRRSTGDVKQSNLIRQPDGTIAFVVDFTGAEMKKLPEDTPVTAQTSIGDNGEIVESTVRYNPVTKGWRLVMRVKVKDAKKTTEMRAALVNADQTLSETWSYQLPANEVEHHHHHH”, the “soluble on expression in E. coli” value is “soluble”.
With “MFSLSKTLAALLLCSAASLAQAAETAICYNCPPEWADWGTQLKAIADSTSVQVPLDNKNSGQALAQIVAEQAAPVADVVYYGVTFGLQAQKAGVVDTYKPKHWDDIPAGLKDPQGHWFAIHSGTLGIMVNVDALGGLPVPQSWADLLKPEYKGMVGYLDPSSAFVGYVSAVAINQAMGGSLDNFGPAIDYFQKLAKNSPIVPKQTAYARALSGELPILVDYDFNAYRARYKDKANVAFVIPKEGTIGVPYVMSMVAKAPHRANAEKVLDFVLSDAGQALWAKAYLRPVRSKMPADVAAQFLPDSDYARAGVVDYQRMAAVQEAFAARYLREVK”, the “soluble on expression in E. coli” value was “not soluble”.
The result for “MFSRPGLPVEYLQVPSASMGRDIKVQFQGGGPHAVYLLDGLRAQDDYNGWDINTPAFEEYYQSGLSVIMPVGGQSSFYTDWYQPSQSNGQNYTYKWETFLTREMPAWLQANKGVSPTGNAAVGLSMSGGSALILAAYYPQQFPYAASLSGFLNPSEGWWPTLIGLAMNDSGGYNANSMWGPSSDPAWKRNDPMVQIPRLVANNTRIWVYCGNGTPSDLGGDNIPAKFLEGLTLRTNQTFRDTYAADGGRNGVFNFPPNGTHSWPYWNEQLVAMKADIQHVLNGATPPAAPAAPAALEHHHHHH” reads “soluble”.
The result for “MFSSSKLVNAVAQRLLDTIEQGRWVAGQMLPGQRELAEQMEISRPSLREAIMVLETLGVVRSLPGKGVMVLERSEPLREVAAPGEATMEDVLQLRYALEPFIVGIVAQSAGAAEISELRLLLLDLREAVEDGDPQALVEAYTAFHRRLVKLTSNPIFLSVSEQIGSALERSDNLVRRQPEYAEEILQEHDAILRAIRQHDSERASQAMRQHILNEGARLNIDLRLPQV” reads “not soluble”; that for “MFTGIINHCGEIRSMEALPDHTVLSIDTQFSDLQLGESIAIDGICVTVTQKKLGSFSCDLSPETLACTKARDYKIGSRINLERALRLTDRLGGHFVSGHVDQTAILESQKKHAEFIQMDFKNSSEERWNYLIPKGSVAVNGVSLTVNSVAGDYFSVMLIPHTLEHTNLNDLKEGQIVNIEFDLITKIIVQKTREALSHAKTI”, “soluble”; that for “MFYDLAIGIYDLLVHLAAPFSRKPRKMMKGHWVVYDLLRQQVEKDERYIWFHAASLGEFEQGRPLIESIRERYPDYKILQTFFSPSGYEVRKNYRGADIVCYLPFDKPRNVKKFLDIVNPCMAFFIKYEFWKNYLDELHKRRIPVYSVSSIFRKDQIFFKWYGGTYRNVLKDFDHLFVQNEASKRFLAKIGITRVTVVGDTRFDRVLQIREQAKELPLVEQFKNGAFTFVAGSSWGPDEDLFIEYFNSHPEMKLIIAPHVIDENHLVEIIGKLKRPSVRYTRADEKNVRKADCLIIDCFGLLSSIYRYGEIAYIGGGFGVGIHNTLEAAVYGIPVIFGPKYQKFMEAMQLIEAGGAYSIKDYNELKTLLDRLLTDEAFLRKTGTNAGNYVIGNSGATEKVLHMINFLEHHHHHH”, “not soluble”.
Regarding “MGAFFMSVVSAFAGAAEACRPTGALQNVEVARVVDGDTVRLRDGRSVRLIGINAPELAHNGRTTEPFAEAAKQRLQALVSASDGRLALQPGRQARDHYGRTLAHLFDASGANLEARLLGEGLGYLVAVAPNTELTACQQAAERAARSANLGVWKRSPVLSLDRLAQSGFAVVRGRVLEVERNRGGIWLEMDGPLVLRIEPKVLKAFDAKRVMQMAGRSLEVRGWVVDRSRRGAVPAGKARWQMSVTDPAMLEWLPLEHHHHHH”, the “soluble on expression in E. coli” value is given as “not soluble”.
The result for “MGAIAPSSNILAKAMVDAIDFEVAKCIVELGPGTGSFTKEIMKRKKKRTTFILIEINEVFFKKLQKQYEDDASVVVIHGSAENIQRYVEELQIKGVDYVLSGLPFTSLPKEESSRILNNVMESLRENGRFITFQYSLVKKGFIEDFFPDIQLKKVWFNFPPAYVFSCKKSLEHHHHHH” reads “soluble”; that for “MGCLGNSKTEDQRNEEKAQREANKKIEKQLQKDKQVYRATHRLLLLGAGESGKSTIVKQMRILHVNGFNGEGGEEDPQAARSNSDGEKATKVQDIKNNLKEAIETIVAAMSNLVPPVELANPENQFRVDYILSVMNVPDFDFPPEFYEHAKALWEDEGVRACYERSNEYQLIDCAQYFLDKIDVIKQDDYVPSDQDLLRCRVLTSGIFETKFQVDKVNFHMFDVGGQRDERRKWIQCFNDVTAIIFVVASSSYNMVIREDNQTNRLQEALNLFKSIWNNRWLRTISVILFLNKQDLLAEKVLAGKSKIEDYFPEFARYTTPEDATPEPGEDPRVTRAKYFIRDEFLRISTASGDGRHYCYPHFTCAVDTENIRRVFNDCRDIIQRMHLRQYELLGGHHHHHH”, “soluble”.
The result for “MGDDCSDHSSLCKHCCYEMIRDSIKDYKSGPLYARCPQCFRNISSLTRRKRRLTSEGHDENCPAPMVPMVNAEHSISLCDYTTSMMGGGQVNKGFESSSSLFLCFRKFPIGNYNQKFFVGDSLKNGRIQYRNTKYEYSKKHFRSYKFFMIFQICRSKFQNL” reads “not soluble”; that for “MGDVQMGNCLRIPSANMAPALPEHGTAEASTSNPMPHAGNMTAGPQEHTAVEGCAGRQIADMWLSSLERPARRPSGSRSQPTAQSRPQSKLEKLTEQRQSMLQRAIILEDQWRSLQERCARTSVGGRQAFNLDILKGIIDRDKQALERMGGEGSYIAERHLHRIERTLQDFEKKISNQKKLQSHLAKANDFLARLKLLKDELSSRGENKDILNDIDLNIKDLEGILNELTRIEANGAGIQYDGCRGGAIAYFDSVTISLEAMLRSQDSGYFDYMRPALANVLQDGYSPSRRKAVSDAGMRGGASDGIS”, “not soluble”.
Consider “MGDVSAVSSSGNILLPQQDEVGGLSEALKKAVEKHKTEYSGDKKDRDYGDAFVMHKETALPLLLAAWRHGAPAKSEHHNGNVSGLHHNGKSELRIAEKLLKVTAEKSVGLISAEAKVDKSAALLSSKNRPLESVSGKKLSADLKAVESVSEVTDNATGISDDNIKALPGDNKAIAGEGVRKEGAPLARDVAPARMAAANTGKPEDKDHKKVKDVSQLPLQPTTIADLSQLTGGDEKMPLAAQSKPMMTIFPTADGVKGEDSSLTYRFQRWGNDYSVNIQARQAGEFSLIPSNTQVEHRLHDQWQNGNPQRWHLTRDDQQNPQQQQHRQQSGEEDDA”, for which the “soluble on expression in E. coli” value is “not soluble”.
For “MGEKAFKRPNVLSTIGAFGYRAAVFRNVLEAAKLDPSIYYTFISGPEIDPEQFSKVPENVEFTGFTENPFPYYKGSDLVITAGGHGTIMESLAFGLPILSFPDEKHAEQENNASVLEEAGYGKRMSYLTPPEVILACIREIFEDENYSKKTRRLMELAEVLEHHHHHH” the value was “soluble”; for “MGEKIKLEHGAGGEIMEELLRDVILKTLTLKSAGGIGLDALDDGATIPFGDKHIVFTIDGHTVKPLFFPGGDIGRLAVSGTVNDLAVMGAEPIALANSMIIGEGLDMEVLKRVLKSMDETAREVPVPIVTGDTKVVEDKIEMFVITAGIGIAEHPVSDAGAKVGDAVLVSGTIGDHGIALMSHREGIAFETELKSDVAPIWDVVKAVAETIGWENIHAMKDPTRAGLSNALNEIARKSNVGILVREADIPIRPEVRAASEMLGISPYDVANEGKVVMVVAREYAEEALEAMRKTEKGRNAAIIGEVIADYRGKVLLETGIGGKRFMEPPEGDPVPRIC”, “soluble”.
For “MGELANCPKCNALFLKTKLQTVCQACIKEEEKSFETVYKFLRKQENRQSTLSRITEETGVEEELILKFIRQKRIQITHLPNLAYPCERCGTSIREGKFCKACQSDIKDQMDHLNHEDALKIEKENSKKDTYYAYNTKNSLEHHHHHH” the value was “soluble”.
Regarding “MGETKADFRDMSRIPKVREGFYATNNQFQKAGPKGFVQVKVLENDNLYVRVDLPGVPDDAVRYRVDAVRQKVVFFSGETLNNGKEGVRQYSGTAGLGCDCCEITGVDAKMKDGVLRMILTRVKVVSKAQDNNNNKCTLTVPPFTGQSGIRLEDHPCLVSGRKGALIGVTKAGGGAHFAVDMPGVSPDDVEVYADEKEIRFKAEIKDVYEHDESGRTYLGSVQSPFPALISNNTIAWDAEFGVLRIAVIPPDDMTTINNKRNPIE”, the “soluble on expression in E. coli” value is given as “soluble”.
For “MGETKLFFGPNHPGMHGNFSVHMYVEGDIVKKARPVPGFLHRGFEKLMERRYWYSNISLIPRICVPEPDINEICYAMAIEKIAKVEVPERAQWIRMIVLELARIANHIWTVGGIGGPLGLYTASHWGVADRDRILDIFEALSGARVYHMYIIPGGVRKNMTPKIEEMIWKTLDYIESRLPDYENLIFKNRIVHSRLRGRLILTREQAVEMGVTGVGLRATGVEYDIRKVDPYLFYDRVEFEVPTATDGDAFSRVYLKFKEIPQSIKIIRQALEKMPQADRVNVPIGRGNGLRRIVPKGMAYAHVESTRGEYGFFVVSDGKNKPYRVAVRGASYPQGLYGIEKYLPGTRIEDVPIWLATMDVCAPEIDR” the value was “soluble”.
For “MGEWEIIDIGPFTQNLGKFAVDEENKIGQYGRLTFNKVIRPCMKKTIYENEGFREIKGYEYQLYVYASDKLFRADISEDYKTRGRKLLRFNGPVPPP” the value was “soluble”.
For “MGFFVSEGERCMTYCATEVTFPQGITSLETQVMLLQTHQNGMDIVTYSTPFHPVSHIWPDHPADRGILIWQGSEYAVTDCVVGAIEQASGHLYVGNNIPVKREESGWLFVVVHRLGEVIAACQVGDKVQLQVDTQYQASLSRGHSAGHLGYLALNKVLAQGYWRKDAERKDPQGYFDFNSYAQISSDVTPDCSTDVYRLGKTLRKRGLNSDDVLRDLSFIEQKTNEQLAQWLALASPIRLECTGSTLTDSRYWECDLHEANIARIPCGGTHCKGLTAFQSIQVTLKQVDEQHIEAVTCAQPSESELEHHHHHH” the value was “soluble”.
Regarding “MGFQNLWFSHPRKFGPGSRSCRVCAGHHGLIRKYGLDLCRRCFREQARDIGFKKLD”, the “soluble on expression in E. coli” value was “not soluble”.
For “MGGGGHGGGITYKGVTVHTPKTWHTVTGKGLCAVMWFWILYRAKQDGPVVMGWRHPWDGHGDHGHGDHH” the value was “not soluble”.
Regarding “MGGHHHHHHGENLYFQGISSETGEMGILWEFDPIINKWIRLSMKLKVERKPFAEGALREAYHTVSLGVGTDENYPLGTTTKLFPPIEMISPISKNNEAMTQLKNGTKFVLKLYKKEAEQQASRELYFEDVKMQMVCRDWGNKFNQKKPPKKIEFLMSWVVELIDRSPSSNGQPILCSIEPLLVGEFKKNNSNYGAVLTNRSTPQAFSHFTYELSNKQMIVVDIQGVDDLYTDPQIHTPDGKGFGLGNLGKAGINKFITTHKCNAVCALLDLDVKLGGVLSGNNKKQLQQGTMVMPDILPELMPSDNT”, the “soluble on expression in E. coli” value is “soluble”.
